The source of these data is PMC11014265.

One data set has as its target T1, HrpA75-1300 (no APHB) (Escherichia coli, UniProt P43329 75-1300).
T1 sequence: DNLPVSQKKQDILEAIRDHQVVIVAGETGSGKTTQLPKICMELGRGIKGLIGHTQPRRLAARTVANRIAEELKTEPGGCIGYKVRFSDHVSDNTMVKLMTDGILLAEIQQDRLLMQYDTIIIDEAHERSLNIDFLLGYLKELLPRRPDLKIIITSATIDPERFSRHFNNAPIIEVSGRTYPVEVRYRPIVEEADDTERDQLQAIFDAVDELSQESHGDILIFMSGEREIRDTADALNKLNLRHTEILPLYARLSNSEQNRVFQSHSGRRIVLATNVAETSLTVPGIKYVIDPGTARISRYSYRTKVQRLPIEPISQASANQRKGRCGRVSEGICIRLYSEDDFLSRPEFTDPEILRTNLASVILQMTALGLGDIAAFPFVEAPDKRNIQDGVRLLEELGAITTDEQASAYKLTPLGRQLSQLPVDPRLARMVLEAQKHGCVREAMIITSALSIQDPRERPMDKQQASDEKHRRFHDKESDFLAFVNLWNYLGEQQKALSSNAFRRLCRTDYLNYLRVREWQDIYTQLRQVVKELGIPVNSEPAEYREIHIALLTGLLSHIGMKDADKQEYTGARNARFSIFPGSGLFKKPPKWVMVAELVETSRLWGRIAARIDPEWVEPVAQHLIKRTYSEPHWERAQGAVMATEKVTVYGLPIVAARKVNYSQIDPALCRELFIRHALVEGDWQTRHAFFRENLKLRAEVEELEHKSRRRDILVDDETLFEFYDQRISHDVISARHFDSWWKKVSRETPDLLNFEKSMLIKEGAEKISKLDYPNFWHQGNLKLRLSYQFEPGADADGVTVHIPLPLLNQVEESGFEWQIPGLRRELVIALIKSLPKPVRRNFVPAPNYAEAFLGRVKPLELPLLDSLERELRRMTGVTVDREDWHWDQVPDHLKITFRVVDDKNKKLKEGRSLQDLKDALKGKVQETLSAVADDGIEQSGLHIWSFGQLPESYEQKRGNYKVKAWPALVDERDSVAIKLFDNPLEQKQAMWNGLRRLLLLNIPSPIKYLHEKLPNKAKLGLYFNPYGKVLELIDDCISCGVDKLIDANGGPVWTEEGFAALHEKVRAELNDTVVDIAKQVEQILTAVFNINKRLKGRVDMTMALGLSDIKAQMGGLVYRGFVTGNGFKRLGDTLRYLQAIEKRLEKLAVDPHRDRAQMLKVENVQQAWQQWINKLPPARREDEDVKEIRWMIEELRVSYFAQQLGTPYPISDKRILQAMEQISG
Put plainly: fluorescence anisotropy. (In general: Polarisation of emitted light reports the rotation of a fluorescent probe.)

The next data set deals with T2, HrpA1-1300 E49A (Escherichia coli, UniProt P43329 1-1300, E49A).
T2 sequence: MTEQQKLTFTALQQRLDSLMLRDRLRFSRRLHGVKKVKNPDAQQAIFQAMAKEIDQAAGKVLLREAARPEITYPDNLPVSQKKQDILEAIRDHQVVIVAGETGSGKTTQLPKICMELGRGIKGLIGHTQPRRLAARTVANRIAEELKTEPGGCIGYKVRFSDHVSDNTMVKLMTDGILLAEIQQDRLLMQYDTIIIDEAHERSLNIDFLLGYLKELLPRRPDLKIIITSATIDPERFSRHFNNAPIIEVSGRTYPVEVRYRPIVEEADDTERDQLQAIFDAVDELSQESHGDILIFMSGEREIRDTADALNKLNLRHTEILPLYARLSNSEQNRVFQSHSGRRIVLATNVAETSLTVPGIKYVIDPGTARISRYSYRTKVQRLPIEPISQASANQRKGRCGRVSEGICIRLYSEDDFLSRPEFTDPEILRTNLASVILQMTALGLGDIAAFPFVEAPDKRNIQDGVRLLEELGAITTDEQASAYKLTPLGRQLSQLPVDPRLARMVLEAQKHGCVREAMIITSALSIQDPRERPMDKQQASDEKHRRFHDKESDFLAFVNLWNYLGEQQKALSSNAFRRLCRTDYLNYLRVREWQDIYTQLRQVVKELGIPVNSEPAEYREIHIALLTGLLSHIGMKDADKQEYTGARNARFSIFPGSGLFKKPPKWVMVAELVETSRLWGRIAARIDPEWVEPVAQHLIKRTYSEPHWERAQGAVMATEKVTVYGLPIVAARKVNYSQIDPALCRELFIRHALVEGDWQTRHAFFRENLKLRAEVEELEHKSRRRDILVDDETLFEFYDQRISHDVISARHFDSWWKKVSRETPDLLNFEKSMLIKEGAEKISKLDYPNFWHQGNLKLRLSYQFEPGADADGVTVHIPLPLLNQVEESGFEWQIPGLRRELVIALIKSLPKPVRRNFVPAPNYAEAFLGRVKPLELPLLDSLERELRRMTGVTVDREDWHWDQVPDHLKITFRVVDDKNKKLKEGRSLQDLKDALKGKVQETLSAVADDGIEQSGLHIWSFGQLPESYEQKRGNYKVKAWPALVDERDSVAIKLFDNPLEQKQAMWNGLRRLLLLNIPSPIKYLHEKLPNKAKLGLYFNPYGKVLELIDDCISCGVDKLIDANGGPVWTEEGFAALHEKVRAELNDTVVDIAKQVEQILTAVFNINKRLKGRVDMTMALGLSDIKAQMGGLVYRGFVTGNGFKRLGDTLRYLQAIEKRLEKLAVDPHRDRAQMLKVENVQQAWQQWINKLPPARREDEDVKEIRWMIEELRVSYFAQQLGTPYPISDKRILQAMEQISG
Put plainly: fluorescence anisotropy.

The target of data set [1] is T3, HrpA1-630 (Escherichia coli, UniProt P43329 1-630).
T3 sequence: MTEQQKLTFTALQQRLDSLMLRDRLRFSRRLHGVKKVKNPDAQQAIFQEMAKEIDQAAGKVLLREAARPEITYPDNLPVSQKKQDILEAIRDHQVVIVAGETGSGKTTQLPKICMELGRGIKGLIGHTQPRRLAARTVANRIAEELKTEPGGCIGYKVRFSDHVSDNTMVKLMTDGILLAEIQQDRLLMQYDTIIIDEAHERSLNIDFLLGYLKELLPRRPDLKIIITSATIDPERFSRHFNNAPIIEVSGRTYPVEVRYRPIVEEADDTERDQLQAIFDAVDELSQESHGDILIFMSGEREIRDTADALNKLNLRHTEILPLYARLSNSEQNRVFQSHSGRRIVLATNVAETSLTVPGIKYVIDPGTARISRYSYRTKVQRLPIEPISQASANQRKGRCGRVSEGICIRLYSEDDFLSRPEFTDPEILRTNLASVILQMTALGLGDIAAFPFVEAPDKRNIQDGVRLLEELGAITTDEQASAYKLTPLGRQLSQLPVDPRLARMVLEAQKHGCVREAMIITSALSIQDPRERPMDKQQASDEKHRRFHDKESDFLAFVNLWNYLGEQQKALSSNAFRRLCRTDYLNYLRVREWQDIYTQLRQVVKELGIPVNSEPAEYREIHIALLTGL
Put plainly: crystal structure.

The target of data set [2] is T3, HrpA1-630. Put plainly: crystal structure. This is another data set of the same source.

Like-named read-outs stand apart in the source and are kept apart here.

In the case of GTGTGTGTGTGT (ssDNA) [D-G-rich], the binding result in the data set with HrpA75-1300 (no APHB) is given as “no binding”; with HrpA1-1300 E49A it was “binds”.
CCCCCCCCCCC (ssDNA) [D-C11, C2 complex]: the binding result with HrpA1-630 [1] is “binds”.

B1: D-C11 i-motif (structured_DNA)
DNA 1: CCCCCCCCCCC
DNA 2: CCCCCCCCCCC
Consider B1, for which the binding result with HrpA1-630 [2] is given as “binds”.
